According to patent US5817490A, “Enzymatic process for the manufacture of ascorbic acid 2-keto-L-gulonic acid and esters of 2-keto-L-gulonic acid” (Eastman Chemical Company, priority 1997, dated 1998):
Like-named read-outs stand apart in the source and are kept apart here.

Legend:
[1] = type: physicochemical
Experimental: HPLC sample standards were prepared by dissolving KLG, MeKLG, ascorbic acid (ASA), and butyl-KLG to the appropriate concentration in water. Samples of these standards were placed in filled and sealed vials, stored at room temperature, and analyzed periodically. The HPLC was calibrated on the area response for standards that were injected onto the HPLC as soon as possible after the preparation of the standards.

[2] = solubility of butyl-KLG in water; type: physicochemical
From the text: The recrystallized butyl-KLG of this example had satisfactory proton and carbon NMR spectra and gave the predicted molecular weight by field desorption mass spectrometry.

[3] = enzyme screen for methanolysis of KLG; type: biochemical; design: unit not given here; settings: Table 14: 38° C., 19 Hours, 8.6% Methanol-Water, 0.2M MES Buffer
Experimental: (§1) Initial enzyme screens were carried out as follows. Enzyme (typically 10 mg), aqueous buffer (typically 860 microliters (ul) or 550 ul), aqueous 0.2M CaCl2 (10 ul), methanol (typically 90 ul or 400 ul), and an aqueous solution of substrate (typically 90 ul of butyl-KLG at a typical concentration of 110,000 ppm) were added to a 2 ml polypropylene centrifuge tube. The resulting solution was vortexed briefly and placed on a shaker bath at 300 rpm at 38° C. (typically for 18 hours or more). After incubation, samples were centrifuged at 14,000 G's (14,000 times gravity) for 20 minutes to remove enzyme, sampled (300 ul), and diluted to one milliliter with distilled water. If not analyzed by HPLC within the day, samples were frozen prior to analysis.

[4] = enzyme screen for hydrolysis/methanolysis of butyl-KLG (HPLC of products and remaining substrate); type: biochemical; design: KLG formed / MeKLG formed / ASA formed / BuKLG (remaining substrate): unit: ppm
Experimental: as §1
The data were reported in terms of parts per million of KLG, MeKLG, ascorbic acid (ASA) and butyl-KLG. […] Samples labeled as "no enzyme" were controls within a given run. The controls contained substrate but no enzyme and thus represented experimental and HPLC background data.

[5] = Example 4: 38% methanol-water, MES, pH 5 to 5.8
[6] = Example 8: 8.6% methanol-water, MES, pH approximately 5.8 to 6.2
[7] = Example 9: 8.6% methanol-water, 0.2M MES
[8] = Table 3: 38° C., 16 Hours, 38% Methanol-Water, 0.1M MES Buffer
[9] = Table 4: 38° C., 47.5 Hours, 38% Methanol-Water, 0.1M MES Buffer
[10] = Table 7: 38° C., 19 Hours, 8.6% Methanol-Water, 0.1M MES
[11] = Table 8: 38° C., 21 Hours, 8.6% Methanol-Water, 0.2 M MES
[12] = Table 9: 38° C., 19 Hours, 8.6% Methanol-Water, 0.2M MES Buffer
[13] = Table 10: 38° C., 19 Hours, 38% Methanol-Water, 0.2M MES Buffer
[14] = Table 11: 38° C., ca. 19 Hours, 8.6% Methanol-Water, 0.2M Pyridine/Pyridinium Hydrochloride
[15] = Table 12: 38° C., ca. 19 Hours, 38% Methanol-Water, 0.2M pyridine buffer, pH 4.7 to 5.1
[16] = Table 13: 38° C., 20 Hours, 8.6% Methanol-Water, pH 2.3, 0.2M Phosphate Buffer

Molecule: COC(=O)C(=O)[C@@H](O)[C@H](O)[C@@H](O)CO [MeKLG, methyl-2-keto-L-gulonate]
- Amount Found ([1]; 50 ppm standard, 0 minutes): 51.4 ppm
- Amount Found ([1]; 50 ppm standard, 400 minutes): 47.7 ppm
- Amount Found ([1]; 50 ppm standard, 715 minutes): 43 ppm
- Amount Found ([1]; 100 ppm standard, 0 minutes): 103 ppm
- Amount Found ([1]; 100 ppm standard, 400 minutes): 106.8 ppm
- Amount Found ([1]; 100 ppm standard, 715 minutes): 90.2 ppm
- Amount Found ([1]; 500 ppm standard, 0 minutes): 514 ppm
- Amount Found ([1]; 500 ppm standard, 400 minutes): 496 ppm
- Amount Found ([1]; 500 ppm standard, 715 minutes): 495 ppm

Molecule: O=C1O[C@H]([C@@H](O)CO)C(O)=C1O [ASA, ascorbic acid]
- Amount Found ([1]; 50 ppm standard, 0 minutes): 53.4 ppm
- Amount Found ([1]; 50 ppm standard, 400 minutes): 28.3 ppm
- Amount Found ([1]; 50 ppm standard, 715 minutes): 0 ppm
- Amount Found ([1]; 100 ppm standard, 0 minutes): 107 ppm
- Amount Found ([1]; 100 ppm standard, 400 minutes): 96.6 ppm
- Amount Found ([1]; 100 ppm standard, 715 minutes): 57.2 ppm
- Amount Found ([1]; 500 ppm standard, 0 minutes): 534 ppm
- Amount Found ([1]; 500 ppm standard, 400 minutes): 487 ppm
- Amount Found ([1]; 500 ppm standard, 715 minutes): 473 ppm

Molecule: CCCCOC(=O)C(=O)[C@@H](O)[C@H](O)[C@@H](O)CO [butyl-KLG, butyl 2-keto-L-gulonate]
- solubility [2]: ≥ 500 mg/mL
- Amount Found ([1]; 50 ppm standard, 0 minutes): 50.6 ppm
- Amount Found ([1]; 50 ppm standard, 400 minutes): 42.7 ppm
- Amount Found ([1]; 50 ppm standard, 715 minutes): 38.2 ppm
- Amount Found ([1]; 100 ppm standard, 0 minutes): 101 ppm
- Amount Found ([1]; 100 ppm standard, 400 minutes): 100.1 ppm
- Amount Found ([1]; 100 ppm standard, 715 minutes): 94.2 ppm
- Amount Found ([1]; 500 ppm standard, 0 minutes): 506 ppm
- Amount Found ([1]; 500 ppm standard, 400 minutes): 512 ppm
- Amount Found ([1]; 500 ppm standard, 715 minutes): 499 ppm

Molecule: O=C(O)C(=O)[C@@H](O)[C@H](O)[C@@H](O)CO [KLG, 2-keto-L-gulonic acid]
- Amount Found ([1]; 50 ppm standard, 0 minutes): 51 ppm
- Amount Found ([1]; 50 ppm standard, 400 minutes): 39.9 ppm
- Amount Found ([1]; 50 ppm standard, 715 minutes): 52 ppm
- Amount Found ([1]; 100 ppm standard, 0 minutes): 102 ppm
- Amount Found ([1]; 100 ppm standard, 400 minutes): 94.3 ppm
- Amount Found ([1]; 100 ppm standard, 715 minutes): 81.8 ppm
- Amount Found ([1]; 500 ppm standard, 0 minutes): 510 ppm
- Amount Found ([1]; 500 ppm standard, 400 minutes): 479 ppm
- Amount Found ([1]; 500 ppm standard, 715 minutes): 493 ppm

B1: Pig Liver Esterase: pig liver esterase (a hydrolase) (protein)
chain: MWLLPLVLTSLASSATWAGQPASPPVVDTAQGRVLGKYVSLEGLAFTQPVAVFLGVPFAKPPLGSLRFAPPQPAEPWSFVKNTTSYPPMCCQDPVVEQMTSDLFTNFTGKERLTLEFSEDCLYLNIYTPADLTKRGRLPVMVWIHGGGLVLGGAPMYDGVVLAAHENFTVVVVAIQYRLGIWGFFSTGDEHSRGNWGHLDQVAALHWVQENIANFGGDPGSVTIFGESFTAGGESVSVLVLSPLAKNLFHRAISESGVALTVALVRKDMKAAAKQIAVLAGCKTTTSAVFTFVHCLRQKSEDELLDLTLKMKFLTLDFHGDQRESHPFLPTVVDGVLLPKMPEEILAEKDFTFNTVPYIVGINKQEFGWLLPTMMGFPLSEGKLDQKTATSLLWKSYPIANIPEELTPVATFTDKYLGGTDDPVKKKDLFLDLMGDVVFGVPSVTVARQHRDAGAPTYMYEFQYRPSFSSDKFTKPKTVIGDHGDEIFSVFGFPLLKGDAPEEEVSLSKTVMKFWANFARSGNPNGEGLPHWPFTMYDQEEGYLQIGVNTQAAKRLKGEEVAFWNDLLSKEAAKKPPKIKHAEL
- ASA formed [3]: 0
- BuKLG [3]: 0
- KLG (remaining substrate) [3]: 4393
- MeKLG formed [3]: 0
- levels of activity / conversion of butyl-KLG ([4]; Example 3: 38% methanol-water, MES, pH 4.8 to 5.8): particularly high levels of activity
- levels of activity / conversion of butyl-KLG [4, 5]: particularly high levels of activity
- levels of activity / conversion of butyl-KLG ([4]; Example 7: 8.6% methanol-water, MES, pH approximately 5 to 6): particularly high levels of activity
- levels of activity / conversion of butyl-KLG [4, 6]: particularly high levels of activity
- conversions to ascorbic acid [4, 7]: significant conversions to ascorbic acid
- selectivity (transesterification) [4, 7]: selectivity toward transesterification
- levels of activity / conversion of butyl-KLG ([4]; Example 9: 8.6% methanol-water, 0.2M MES, pH approximately 5.6 to 6): particularly high levels of activity
- levels of activity / conversion of butyl-KLG ([4]; Example 10: 38% methanol-water, 0.2M MES, pH approximately 5.6 to 6.2): Decreased, although still appreciable, activity
- levels of activity / conversion of butyl-KLG ([4]; Example 11: 8.6% methanol-water, pyridine buffer, pH approximately 4.9 to 5.3): particularly high levels of activity
- ASA formed [4, 8]: 294 ppm
- BuKLG (remaining substrate) [4, 8]: 5711 ppm
- KLG formed [4, 8]: 446 ppm
- MeKLG formed [4, 8]: 4377 ppm
- ASA formed [4, 9]: 246 ppm
- BuKLG (remaining substrate) [4, 9]: 1368 ppm
- KLG formed [4, 9]: 705 ppm
- MeKLG formed [4, 9]: 2720 ppm
- ASA formed [4, 10]: 423
- BuKLG (remaining substrate) [4, 10]: 10
- KLG formed [4, 10]: 2726
- MeKLG formed [4, 10]: 3731
- ASA formed [4, 11]: 717 ppm
- BuKLG (remaining substrate) [4, 11]: 83 ppm
- KLG formed [4, 11]: 2373 ppm
- MeKLG formed [4, 11]: 4167 ppm
- ASA formed [4, 12]: 650 ppm
- BuKLG (remaining substrate) [4, 12]: 0 ppm
- KLG formed [4, 12]: 1947 ppm
- MeKLG formed [4, 12]: 4258 ppm
- ASA formed [4, 13]: 173 ppm
- BuKLG (remaining substrate) [4, 13]: 7030 ppm
- KLG formed [4, 13]: 203 ppm
- MeKLG formed [4, 13]: 1654 ppm
- ASA formed [4, 14]: 37 ppm
- BuKLG (remaining substrate) [4, 14]: 390 ppm
- KLG formed [4, 14]: 1613 ppm
- MeKLG formed [4, 14]: 5787 ppm
- ASA formed [4, 15]: 0
- BuKLG (remaining substrate) [4, 15]: 11750
- KLG formed [4, 15]: 47
- MeKLG formed [4, 15]: 197
- ASA formed [4, 16]: 0
- BuKLG (remaining substrate) [4, 16]: 9500
- KLG formed [4, 16]: 417
- MeKLG formed [4, 16]: 93

B2: ChiroCLEC-BL (Dry): crystalline crosslinked enzyme, a crystalline form of Subtilisin (a protease) (Altus Biologics) (protein, UniProt P00780 106-379, looked up)
Subtilisin Carlsberg: AQTVPYGIPLIKADKVQAQGFKGANVKVAVLDTGIQASHPDLNVVGGASFVAGEAYNTDGNGHGTHVAGTVAALDNTTGVLGVAPSVSLYAVKVLNSSGSGSYSGIVSGIEWATTNGMDVINMSLGGASGSTAMKQAVDNAYAKGVVVVAAAGNSGSSGNTNTIGYPAKYDSVIAVGAVDSNSNRASFSSVGAELEVMAPGAGVYSTYPTNTYATLNGTSMASPHVAGAAALILSKHPNLSASQVRNRLSSTATYLGSSFYYGKGLINVEAAAQ
modifications: crystalline cross-linked enzyme
- ASA formed [3]: 0
- BuKLG [3]: 0
- KLG (remaining substrate) [3]: 3270
- MeKLG formed [3]: 0
- levels of activity / conversion of butyl-KLG [4, 5]: particularly high levels of activity
- levels of activity / conversion of butyl-KLG [4, 6]: particularly high levels of activity
- ASA formed [4, 8]: 3 ppm
- BuKLG (remaining substrate) [4, 8]: 5123 ppm
- KLG formed [4, 8]: 194 ppm
- MeKLG formed [4, 8]: 642 ppm
- ASA formed [4, 9]: 54 ppm
- BuKLG (remaining substrate) [4, 9]: 634 ppm
- KLG formed [4, 9]: 3744 ppm
- MeKLG formed [4, 9]: 1724 ppm
- ASA formed [4, 10]: 135
- BuKLG (remaining substrate) [4, 10]: 4051
- KLG formed [4, 10]: 2860
- MeKLG formed [4, 10]: 1233
- ASA formed [4, 11]: 6 ppm
- BuKLG (remaining substrate) [4, 11]: 1376 ppm
- KLG formed [4, 11]: 4293 ppm
- MeKLG formed [4, 11]: 1282 ppm
- ASA formed [4, 12]: 215 ppm
- BuKLG (remaining substrate) [4, 12]: 3045 ppm
- KLG formed [4, 12]: 3485 ppm
- MeKLG formed [4, 12]: 1235 ppm
- ASA formed [4, 13]: 102 ppm
- BuKLG (remaining substrate) [4, 13]: 5572 ppm
- KLG formed [4, 13]: 1261 ppm
- MeKLG formed [4, 13]: 1693 ppm
- ASA formed [4, 14]: 67 ppm
- BuKLG (remaining substrate) [4, 14]: 5603 ppm
- KLG formed [4, 14]: 987 ppm
- MeKLG formed [4, 14]: 1360 ppm
- ASA formed [4, 15]: 7
- BuKLG (remaining substrate) [4, 15]: 10950
- KLG formed [4, 15]: 97
- MeKLG formed [4, 15]: 447
- ASA formed [4, 16]: 0
- BuKLG (remaining substrate) [4, 16]: 10580
- KLG formed [4, 16]: 387
- MeKLG formed [4, 16]: 0
